Laboratory results from US20240279350A1 (Sanofi, published 2024).
Positions count from the first letter of the chain named. Names may count otherwise.

B1: mAb1 (Y32K/S77A) (antibody, human IgG2, kappa)
heavy: QVQLVQSGAEVKKPGASVKVSCKASGYTFTGKYMHWVRQAPGQGLEWMGWINPDSGGTNYAQKFQGRVTMTRDTSIATAYMELNRLRSDDTAVYYCARDQPLGYCTNGVCSYFDYWGQGTLVTVSSASTKGPSVFPLAPCSRSTSESTAALGCLVKDYFPEPVTVSWNSGALTSGVHTFPAVLQSSGLYSLSSVVTVPSSNFGTQTYTCNVDHKPSNTKVDKTVERKCCVECPPCPAPPVAGPSVFLFPPKPKDTLMISRTPEVTCVVVDVSHEDPEVQFNWYVDGVEVHNAKTKPREEQFNSTFRVVSVLTVVHQDWLNGKEYKCKVSNKGLPAPIEKTISKTKGQPREPQVYTLPPSREEMTKNQVSLTCLVKGFYPSDIAVEWESNGQPENNYKTTPPMLDSDGSFFLYSKLTVDKSRWQQGNVFSCSVMHEALHNHYTQKSLSLSPGK
light: DIQMTQSPSSVSASVGDRVTITCRASQGIYSWLAWYQQKPGKAPNLLIYTASTLQSGVPSRFSGSGSGTDFTLTISSLQPEDFATYYCQQANIFPLTFGGGTKVEIKRTVAAPSVFIFPPSDEQLKSGTASVVCLLNNFYPREAKVQWKVDNALQSGNSQESVTEQDSKDSTYSLSSTLTLSKADYEKHKVYACEVTHQGLSSPVTKSFNRGEC
notes: Mutant of AbC1 with the same constant regions (IgG2); also called mAb1 double mutant; mAb1 (without masking moiety)
B2: mAb2 (Y32K/S77P) (antibody, human IgG2, kappa, V domains shown)
VH: QVQLVQSGAEVKKPGASVKVSCKASGYTFTGKYMHWVRQAPGQGLEWMGWINPDSGGTNYAQKFQGRVTMTRDTSIPTAYMELNRLRSDDTAVYYCARDQPLGYCTNGVCSYFDYWGQGTLVTVSS
VL: DIQMTQSPSSVSASVGDRVTITCRASQGIYSWLAWYQQKPGKAPNLLIYTASTLQSGVPSRFSGSGSGTDFTLTISSLQPEDFATYYCQQANIFPLTFGGGTKVEIKR
notes: Mutant of AbC1 with the same constant regions (IgG2)
B3: mAb3 (Y32K) (antibody, human IgG2, kappa, V domains shown)
VH: B2 VH with P77S
VL: B2 VL
notes: as for B2
B4: AbC1 (antibody, human IgG2, kappa, V domains shown)
VH: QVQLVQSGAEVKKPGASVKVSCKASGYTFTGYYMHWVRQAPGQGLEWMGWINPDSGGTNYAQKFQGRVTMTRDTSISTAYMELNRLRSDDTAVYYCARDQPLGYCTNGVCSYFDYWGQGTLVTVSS
VL: B2 VL
notes: Human IgG2; also called parental antibody; parental AbC1 antibody

Columns and labels:
human CD40 on cells [1] = target: T1, human CD40 on cells (human, UniProt P25942 21-277); experiment: cell-based or functional assay
T1 sequence (P25942 21-277 limits assumed): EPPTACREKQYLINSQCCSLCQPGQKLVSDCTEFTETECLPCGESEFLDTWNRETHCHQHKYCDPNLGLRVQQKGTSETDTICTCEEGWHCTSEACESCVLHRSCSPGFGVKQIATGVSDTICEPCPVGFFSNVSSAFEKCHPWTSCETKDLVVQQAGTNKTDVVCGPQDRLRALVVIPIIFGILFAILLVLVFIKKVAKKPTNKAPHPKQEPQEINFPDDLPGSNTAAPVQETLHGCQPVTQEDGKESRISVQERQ

human CD40 on cells [2] = target: T1, human CD40 on cells; experiment: cell-based or functional assay; remark: listed apart in the source
[3] = target: rhesus CD40 on HEK293H reporter cells (rhesus, UniProt F6SNI1 21-278); experiment: cell-based or functional assay
human CD40 on cells [4] = target: T1, human CD40 on cells; experiment: flow cytometry on Raji cells; EC50 relative to mAb1
Procedure: (§1) Briefly, Raji cells were seeded in 96-well plates at 1.0×10⁵ cells/well and incubated with serially-diluted test antibodies for 60 minutes at 4° C. in 2% FBS/dPBS buffer. The cells were then washed twice with dPBS and further incubated with secondary allophycocyanin (APC)-conjugated AffiniPure F(ab′)₂ fragment donkey anti-human IgG (H+L) antibody (Jackson ImmunoResearch, Ref. 709-136-149) (1:500) for 30 minutes at 4° C. Finally, the cells were washed twice with dPBS and suspended in FACS buffer for flow cytometry analysis. MFI values vs concentrations were analyzed by FlowJo and data were further fitted with four-parameter non-linear regression to get EC₅₀ values by GraphPad Prism software.

human CD40 on cells [5] = target: T1, human CD40 on cells; experiment: flow cytometry on U-2 OS/NFκB cells
Procedure: as §1, with “cultured U-2 OS/NFκB” for “Raji”

human CD40 on cells [6] = target: T1, human CD40 on cells; experiment: flow cytometry on human primary naive B-cells, 1 h at 4 °C, AF488-conjugated secondary antibody (MFI)
Procedure: (§2) Naive B-cell were plated at a density of […] cells per well in 96-well plates and incubated with CD40 agonists, hexameric ligand and anti-CD40 antibodies, for 1 hour at 4° C.

human CD40 on cells [7] = target: T1, human CD40 on cells; experiment: flow cytometry on U-2 OS/NFκB cells; EC50 relative to mAb1
Procedure: as §1, with “cultured U-2 OS/NFκB” for “Raji”

human CD40 on cells [8] = target: T1, human CD40 on cells; experiment: flow cytometry on Raji cells; binding to Raji cells, flow cytometry
Procedure: as §1

human CD40 on cells [9] = target: T1, human CD40 on cells; experiment: cell-based or functional assay; remark: listed apart in the source
[10] = target: T2, cynomolgus CD40 on HEK293 cells (cynomolgus, UniProt G7PG38 21-278); experiment: flow cytometry on cynomolgus CD40-expressing HEK293 cells, 1 h at 4 °C, AF488-conjugated secondary antibody (MFI)
T2 construct: whole, on cells; also called cyno CD40; cynoCD40-expressing HEK293 cells
Procedure: Cyno CD40-expressing HEK293 cells were plated at a density of 50×10³ cells per well in 96-well plates and incubated with serially diluted concentrations of CD40 agonists, hexameric ligand and anti-CD40 antibodies, for 1 hour at 4° C. Cells were then harvested and incubated with AF488-conjugated secondary antibody before flow cytometry analysis using a Fortessa X20.
Data from the flow cytometer was analyzed using FlowJo (V10.8.1), then the binding curves, the Eₘₐₓ, and EC₅₀ values were plotted using GraphPad Prism (V9.1.2).

human CD40 on cells [11] = target: T1, human CD40 on cells; experiment: flow cytometry on U-2 OS/NFκB cells (further experiment), APC-conjugated anti-human IgG secondary antibody (median fluorescence intensity)
Procedure: as §1, with “cultured U-2 OS/NFκB” for “Raji”

human CD40 on cells [12] = target: T1, human CD40 on cells; experiment: cell-based or functional assay; remark: listed apart in the source
recombinant human CD40 = target: T3, recombinant human CD40 (human, UniProt P25942 21-193); experiment: SPR (Biacore 8K+), antibody captured on protein A/G, recombinant hCD40 as analyte, 1:1 model
T3 construct: Soluble analyte in SPR; also called Recombinant hCD40; hCD40
T3 sequence (P25942 21-193 limits assumed): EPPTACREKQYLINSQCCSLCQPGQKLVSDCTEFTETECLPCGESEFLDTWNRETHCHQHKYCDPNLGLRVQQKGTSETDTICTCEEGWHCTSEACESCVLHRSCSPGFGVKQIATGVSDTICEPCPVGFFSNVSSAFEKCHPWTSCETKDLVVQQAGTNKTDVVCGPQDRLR
Procedure: Protein A/G was immobilized to the surface of a CM5 series S chip using amine chemistry. Test compounds were then captured to the surface between 120 RU and 170 RU. Recombinant hCD40 was diluted 2-fold from 300 nM to 2.34 nM in HBS-EP+buffer. […] Glycine (10 mM) pH 1.5 was used to regenerate the chip surface. The binding affinity (KD) was determine using a 1:1-binding model by a global fit of all the concentrations.

human CD40 on cells [13] = target: T1, human CD40 on cells; experiment: cell-based or functional assay; remark: listed apart in the source
human CD40 on cells [14] = target: T1, human CD40 on cells; experiment: flow cytometry on human primary naive B-cells, 1 h at 4 °C, AF488-conjugated secondary antibody (MFI); remark: listed apart in the source
Procedure: as §2

Binder | EC50, CD83 expression, MoDC maturation assay (human CD40 on cells [1]) [nM] | EC50, IL-8 release, MoDC maturation assay (human CD40 on cells [1]) [nM] | EC50, NFkB-luciferase reporter assay, human NFkB-Luc2P/U-2 OS cells (human CD40 on cells [2]) [nM] | Top, NFkB-luciferase reporter assay, human NFkB-Luc2P/U-2 OS cells (human CD40 on cells [2]) [nM] | EC50, luciferase reporter assay, HEK293H rhesus CD40 reporter cells [3] [nM] | Top, luciferase reporter assay, HEK293H rhesus CD40 reporter cells [3] [nM] | EC50 (read off the curve) (human CD40 on cells [6]) [nM] | EC50 (read off the curve) [10] [nM] | EC50 (read off the curve) (human CD40 on cells [11]) [nM] | EC50, CD83 expression, B-cells of hCD40 KI mice (human CD40 on cells [12]) [nM] | EC50, CD86 expression, B-cells of hCD40 KI mice (human CD40 on cells [12]) [nM] | Kd (recombinant human CD40) [nM] | koff (recombinant human CD40) [s⁻¹] | kon (recombinant human CD40) [M⁻¹ s⁻¹] | EC50 (read off the curve) (human CD40 on cells [14]) [nM] | other results
B1 | 0.49 | 0.21 | 0.52 | 53.6 | 0.49 | 3.91 | ~2 | ~2 | ~2 | 0.051 | 0.031 | 65 | 0.0034 | 52000 | – | Relative masking efficacy (human CD40 on cells [4]): 1 fold; EC50 (human CD40 on cells [5]): 1.5 nM; Relative masking efficacy (human CD40 on cells [7]): 1 fold; EC50 (human CD40 on cells [8]): 1.34 nM; EC50, luciferase reporter assay in U-2 OS/NFκB cells (human CD40 on cells [9]): 0.238 nM; Relative masking efficacy, luciferase reporter assay in U-2 OS/NFκB cells (human CD40 on cells [9]): 1 fold; Relative masking efficacy, CD83 expression, B-cells of hCD40 KI mice (human CD40 on cells [12]): 1 fold; Relative masking efficacy, CD86 expression, B-cells of hCD40 KI mice (human CD40 on cells [12]): 1 fold; EC50, CD86 expression, primary human B-cell activation assay (human CD40 on cells [13]): 0.175 nM; Relative masking efficacy, CD86 expression, primary human B-cell activation assay (human CD40 on cells [13]): 1 fold
B2 | – | – | 0.54 | 45.2 | – | – | ~2 | – | – | – | – | – | – | – | – | –
B3 | – | – | 0.44 | 48.9 | 0.59 | 3.54 | – | ~2 | – | – | – | 91 | 0.0041 | 45000 | ~5 | –
B4 | 1.02 | 1.92 | 1.43 | 16.2 | 0.09 | 1.91 | ~1 | ~1 | ~2 | 0.034 | 0.011 | 18 | 0.0019 | 110000 | ~4 | –
